# Data taken from the DeepSol protein solubility set.
# Experiment: soluble on expression in E. coli; label from the status in PepcDB or PDB records
row,Sequence,soluble on expression in E. coli
1,MGSDKIHHHHHHMNDNAERRYRRPSYRITLDEQDITPRINGRLIRLRLRSQRGLEADQLDLTLSDHDGALALPRRGVSLRVAYGWQDDGLIDKGLFTVDEVQHSGTPDQITIRARSADMRGRLPGKRSRSWHDITVGEIIDTIAKRHTLEPVVGDTVRGIRIGHIDQTEESDLNFLTRLGERFDAVATVKAARLLFTQAGEALTASGLAMPSVTLTRRDGDRHRYSATDRDTYTGVIAYWNDKANAKRQRVIAGSDEDAKELRPTYATEADALDAAKAEWRRVQRGEATFKITLAYGRADILPESPLTASGFKPDIDATPWLVTEVEDSLDDNGFGTRVQCEVRGGAAET,not soluble
2,MTTRLIVKNLPSTCTEQQLRKFFEKYGQISDASLKYTKEGKFRGFAFVGFLDEGSASNALAKSNQTFFNSKKLTVEECRPFGDANKPRAWSKYAKDSSAYKRTHGEKEEANPGKSDETEEPAPKKQKDDAKFDQFLEAKGVVVEKEVKLSKDKSAEAKKLMAELMDGIGGDTSLSLIFSGLPSSAKGKNIKEWLNPIRVKAMKIARNEDVAAAFVTFNRPPDVRRALQKDGQFLGGFKIGIEKIETPEPEHEVIEEHGASLESRDKEEETVREKILETGRLFLRNLPYATKEDDLQFLFKKYGEVSEVQVVIDKKTGACKGFAIVEFVFPEAAVAAYSALDGYVFKGRMMHILPGDEKRTKEGEEESEVVPDDPDNPLKAEAKKEKKKKSFKEEKDEQKKASAGKTAHSWNALFLGANAIADTLAQRLNVKKSDLLTSDQGESAGVRLALAETRLVRETRDFFLENGVKLDAFSKPAEKRSDTVMLAKNLPAGVESEELQRMFEKFGDCTKVLMPTEGGVSALVIMGNPVDAKKAFRALAYSRFRSQPLYLEWAPYDVMGATAPPAEDKTAEVADKPKLSKREMTYEEKRKERKNRQQGITEEEKDDGEVIEEEEKPKEVEAEDKKKSSKKQSEKEIESGSTLFVKNLAFDTTDGSLEFLFRKRYGDLVKSAQISKKLNPAEPTKPLSMGFGFVQFYTAFDAKTALKDMQGELLDGHSLELKISHRENADKGALKRKEVKQKEQGECTKLLVRNLPFEASVKEVETLFETFGAVKTIRIPKKPGQKQQHRGFGFVDFISADEAHRAFDSLVHSTHLYGRRLVLEWAKDDETVEELREKTAEKFAGNKKGVKKSKAQTEEFQQQLQIADDEKD,not soluble
3,MGHHHHHHSHMTLRCLEPSGNGGEGTRSQWGTAGSAEEPSPQAARLAKALRELGQTGWYWGSMTVNEAKEKLKEAPEGTFLIRDSSHSDYLLTISVKTSAGPTNLRIEYQDGKFRLDSIICVKSKLKQFDSVVHLIDYYVQMCKDKRTGPEAPRNGTVHLYLTKPLYTSAPSLQHLCRLTINKCTGAIWGLPLPTRLKDYLEEYKFQV,not soluble
4,MEVYIPSFRHEDSDLERGYTVFKIEVLMNGRKHFVEKRYSEFHALHKKLKKCIKTPEIPSKHVRNWVPKVLEQRRQGLETYLQAVILENEELPKLFLDFLNVRHLPSLPKAESCGSFDETESEESSKLSHQPVLLFLGDPYVLPAASDFPNVVIEGVLHGIFFSHLQPR,not soluble
5,MGSDKIHHHHHHMNDENIQSSNYQPFPSFDDWKQIEVSLLDVIESSRHFSDLKDSTDRSALDAALERAKRAAAVDTNAIEGIFQTDRGFTHTVATQVGAWEQQMAMKGKHVKPAFDDTLEGFEYVLDAVTGRTPISQQWIRNLHAVILRSQESHEVFTAVGVQNQALQKGEYKTQPNSPQRSDGSVHAYAPVEDTPAEMARFISELESKEFLAAEKVIQAAYAHYAFVCIHPFADGNGRVARALASVFLYKDPGVPLVIYQDQRRDYIHALEAADKNNPLLLIRFFAERVTDTINSIIVDLTTPIAGKSGSAKLSDALRPTRVLPELHDAAHRLQESLFTEIRSRLDEEGKRNGLEFLLQRIFIGSPFNLPEGYNAFPDSYCLTLAFNSNSPKQIFHPLSIVIAARDGKRASSDLVAATSIGYNFHAYGREVEPVVTESFRERVKIYADGIVDHFLTELAKKFQQN,not soluble
6,MGSDKIHHHHHHMTQTSSPLRNRYEFLLLFDVENGNPNGDPDSGNAPRVDPEDGHGLVSDVALKRRVRNYVQAAGEQIFIQHGTNLNRPIFQAKQASGGGSKGKQDVDAARRWMCEHFYDVRTFGAVMSTGANAGQVRGPVQLTFARSLDPVFAIEASITRGAVAEDIKNAKTLDDFLNWEAQQDEDKLRTMGRKSLIPYGLFATKGFVSAHLAQGTGFSEADLKLLLEALLNMYEHDRSASKGLMSSRRLFVFRHVGTDSDPQQRARQAVLGCAPAHKLLDLGQVIEVRRKDEHKPARALSDYEVTVHLDRLPAGVELLDLDSWDEARYHDGWQSR,not soluble
7,NTTHAYVHASPPHSVPIAGASTAAVTHQQATQLKGTDELYGLGNLPSSGPGRWEYLANPENWHPERRKLHEKLLDEARSSALTLAESLERDGCQPTLFALRGNTATGKTRIATKKIPALAAALEKTGGKGCINPDVFKSSLAKSEAGAKIFSSAQVHNESCFLADHFEDGLRSQRTGSGAIASIVVDKRLARAYEIDSYIELAKETGRKVELCDIDAPLENSLTGVLQRKPEGEDPRPPYPVVSSGFVAVRSNRMSVIDRFIADPSLGNYRLFGTAEDGKKVMVASVMGGELSVEDADLYEKITSPQSSVTGDLADKIIDNELIDRLTNNIDDPERAANTRAALEKYNGKSWSAALAAHSELI,not soluble
8,MADEINEIREEQEQLAPFDPSKKKKKKKVVIQEPVEDLAESSQTEKSDSLPVNDGLESSFTGMKKKKKKPTESSLLNNESVDAGEDLDEIANDEQEGEEGIVLQQRYPWEGSERDYIYDELLGRVFNILRENNPELAGDRRRTVMRPPQVLREGTKKTVFVNFMDLCKTMHRQPDHVMQYLLAELGTSGSLDGQQRLVVKGRFAPKNFEGILRRYITDYVICLGCKSPDTILSKENRLFFLRCEKCGSQRSVAPIKTGFVARVSRRKT,soluble
9,MGSDKIHHHHHHMDNYLAEQILKNLPFTPTQSQDSAIRSLAKYLFDREPYSVFLLRGYAGTGKTQLIASVVQTILEQGADCELLAPTGRAAKVLTTYTRHQAYTIHRQIYQATAAGIEEGGAYRIRRSSGRSTVFIVDESSMIGNESVEPTPFGSGSLLNDLLAYVNETDGCRLILAGDMAQLPPVGSVVSPALDAGVMETSYGLRIHECTLTEVVRQQKESAILSLATSLRRLLSNGISEKIKLNIRDSGDVSAISGTELIEALDASFRTVGMDETIIVSYSNKRALAYNLGIRSQVLYYEEELIRGDRLVVTRNNYRYCDRRDKTDFVANGEIVEILRLGKRYELYGFRFADATISLVEQGREIEARLLLDGLTAETAGLTHAQRQKLYDAVAEDYNSMASIPARRKAIKEDAFFSALEVKYAYAITCHKAQGGQWKHVYVDMGMLSYLPHDEQLCRWLYTAVTRASERLFLVNTPKDMLP,not soluble
10,LVTKEVEYEDGDTVCKGFIAYHSSASKPLPCVMVAHDWGGRGEGACNKARQLAGMGYIGFAIDMYGNAKLGKDKAEKRALMTPFRENRGKLITRINAAFNKVVQLPEVDSEKVAAIGYCFGGLCVLDLIRSGAPLKGVVSFHGVLLPLEGESNKSLNAKVLILHGYDDPLVPIEQVNQFAIEMTERKVDWQVHVYGQTAHSFTDPGANDDEMGLHYNKLADQRSWQSTQLFLQELF,not soluble
11,MGSDKIHHHHHHMTNWNLWRTLNMEYIINPCSGIKIKITRGQKIKIVDIEGGQVVDFFAEMKDDSTEFISPGVTIDCNESLRLQVGNLIYSNKYRPMFKILYDDVREHDLLHPCCRPEMYDFFYHNGENHPNCFDNINRTLGTSHQIIHPINFFMYTKVNTDGSIEVCEPLSKANDKIILEALENMTLGIAACSVSESSCNSRKCTSIKILVD,not soluble
12,MRVIVTEYQPAWVEQFEEEAQALKQILKENCLKVEHIGSTSVPNLAAKPIIDFLVIVEEIEKVDLLQWEFERIGYEYMGEFGLSGRRYLRKGPIKRTHHVHIYQFDNTQEILRHLAFRNYLRENPAIATTYGTLKKQLAQAHPDSIDKYMDGKDAFIKKIEKEALKKYWEK,not soluble
13,HHHHHHMPIQVLPPQLANQIAAGEVVERPASVVKELVENSLDAGATRIDIDIERGGAKLIRIRDNGCGIKKDELALALARHATSKIASLDDLEAIISLGFRGEALASISSVSRLTLTSRTAEQQEAWQAYAEGRDMNVTVKPAAHPVGTTLEVLDLFYNTPARRKFLRTEKTEFNHIDEIIRRIALARFDVTINLSHNGKIVRQYRAVPEGGQKERRLGAICGTAFLEQALAIEWQHGDLTLRGWVADPNHTTPALAEIQYCYVNGRMMRDRLINHAIRQACEDKLGADQQPAFVLYLEIDPHQVDVNVHPAKHEVRFHQSRLVHDFIYQGVLSVLQQQLETPLPLDDEPQPAPR,soluble
14,MGSSHHHHHHSSGLVPRGSHMTAEEMKATESGAQSAPLPMEGVDISPKQDEGVLKVIKREGTGTEMPMIGDRVFVHYTGWLLDGTKFDSSLDRKDKFSFDLGKGEVIKAWDIAIATMKVGEVCHITCKPEYAYGSAGSPPKIPPNATLVFEVELFEFKGEDLTEEEDGGIIRRIQTRGEGYAKPNEGAIVEVALEGYYKDKLFDQRELRFEIGEGENLDLPYGLERAIQRMEKGEHSIVYLKPSYAFGSVGKEKFQIPPNAELKYELHLKSFEKAKESWE,soluble
15,DTFIGWEPEVTHKKYFAMLDTISQVQGVPEPIIEAVAPLFFANNADQVHPELVASFKQSLESLTGERAVEVARIGRMVFGRRDVIEDAEKFALPTLIAVGREDKPRPVFESYLMHDCITGSELVEIPEAGHISSLEQPEFVNQMLLSFLNKVHA,not soluble
16,MSLEKLAASTEPQGPRPVLGRESVQVPDDQDFRSFRSECEAEVGWNLTYSRAGVSVWVQAVEMDRTLHKIKCRMECCDVPAETLYDVLHDIEYRKKWDSNVIETFDIARLTVNADVGYYSWRCPKPLKNRDVITLRSWLPMGADYIIMNYSVKHPKYPPRKDLVRAVSIQTGYLIQSTGPKSCVITYLAQVDPKGSLPKWVVNKSSQFLAPKAMKKMYKACLKYPEWKEGHHHHHH,not soluble
17,MSHENQENYDDYNGDHDNKYDQQYDESSRGDDFGGRGRGFNGPPGGAGSFFGVPPAARGRGGPGMAPPGFAGRGRGFATPGMSSGFAPRGRGMPPGRGGYMPPYRGGYGVAPNGGPGAYGGPYNGGPGAYGAQAPGPNPQDQEQRLKRLSGCEEGQELWVETETAEGKKYFYHPVNRNTIWERPQNAKIVTQPELAQLIHRATEEEKNREERMPHGQIPQNPDDAWNEFNAPDGRKYYFNSITQENTWEKPKALIDQENGGGASPEPVQSAAIAEAQAKAQAALAAFMAQQKTSSNGGGGMPLSKAQASGAAAAAAVNAEAAKKKDSTRPISSTPVSGTPWCVVWTGDDKVFFYNPSTKCSVWERPPDTYGREDVDKLVQNPPSPKAEEENNQSKKESESESESDEDGPPKAKKSRAEKKKEALIAAQKKEKERPRQMLQKPVDPAIEAEMQAAKEREKVPLEERLKQFKEMLEEKNVSTSSTFEKELSKIVFDKRYLSLGATERRACFDAFCREKIESEKAERRKRVKEAKEEFQKLLAECELNGRSSYSSFTSKFGKDPRYKAVERNRDREDAFNDFVGELHKKEKDEKRAKKEKLKAAFVKLLEEQTGLTRKSKWSTTKKTLEDEERYIALDSSSTRESLFREFVANLGDETASDIEEEQEREKRLAAQTAIANRQKEVEAELGNQLRERTKESEKQKMGEHEDTYRNLLIDLIKSTENSWHEARRILRKDERYANCDMLDKTRKESLFDDHIKSLERKRREAFFQVLDNHEKITPMMRWRDAKKIIQDEEETFVKIASNSERKVERDFRDWQERRHDHLTDEFKEMLSETKIITHKSKKLMEEGEQHMDILSVLENDKRWVRMTAMSASERDRMLEDHIENLGRKGTPPPPTQQERDRRKQ,soluble
